Laboratory results from US20240010721A1 (HARBOUR BIOMED SHANGHAI, published 2024).
Positions count from the first letter of the chain named. Names may count otherwise.

B1: PR002562 (antibody, human IgG1, kappa, V domains shown)
VH: QVQLVQSGGGVVQPGRSLRLSCAASGFTFSSYGMHWVRQAPGKGLEWVAIMWYDGSDKDYADSVKGRFTISRDTSKNTLYLQMNSLRAEDTAVYYCAREQARSFDLWGRGTLVTVSS
VL: DIVMTQSPSSLSASVGDRVTITCRASQTINNWLAWYQQKPGKAPKLLIYKASSLESGVPSRFSGSGSGTEFTLTISSLQPDDFATYYCQQYQSYSPMYTFGQGTKVEIKR
notes: PR001354 variant: VL N92Q; hIgG1; also called anti-ROR1 1015M2-C9(L: N92Q) hIgG1
B2: PR002563 (antibody, human IgG1, kappa, V domains shown)
VH: B1 VH
VL: B1 VL with Q92N, S93A
notes: PR001354 variant: VL S93A; hIgG1; also called anti-ROR1 1015M2-C9(L: S93A) hIgG1
B3: PR002564 (antibody, human IgG1, kappa, V domains shown)
VH: B1 VH with D54E
VL: B1 VL with Q92N
notes: PR001354 variant: VH D54E; hIgG1; also called anti-ROR1 1015M2-C9(H: D54E) hIgG1
B4: PR002565 (antibody, human IgG1, kappa, V domains shown)
VH: B1 VH with D54E
VL: B1 VL
notes: PR001354 variant: VH D54E, VL N92Q; hIgG1; also called anti-ROR1 1015M2-C9(H: D54E; L: N92Q) hIgG1
B5: PR002566 (antibody, human IgG1, kappa, V domains shown)
VH: B1 VH with D54E
VL: B1 VL with Q92N, S93A
notes: PR001354 variant: VH D54E, VL S93A; hIgG1; also called anti-ROR1 1015M2-C9(H: D54E; L: S93A) hIgG1
B6: PR002567 (antibody, human IgG1, kappa, V domains shown)
VH: B1 VH with G55A
VL: B1 VL with Q92N
notes: PR001354 variant: VH G55A; hIgG1; also called anti-ROR1 1015M2-C9(H: G55A) hIgG1
B7: PR002568 (antibody, human IgG1, kappa, V domains shown)
VH: B1 VH with G55A
VL: B1 VL
notes: PR001354 variant: VH G55A, VL N92Q; hIgG1; also called anti-ROR1 1015M2-C9(H: G55A; L: N92Q) hIgG1
B8: PR002569 (antibody, human IgG1, kappa, V domains shown)
VH: B1 VH with G55A
VL: B1 VL with Q92N, S93A
notes: PR001354 variant: VH G55A, VL S93A; hIgG1; also called anti-ROR1 1015M2-C9(H: G55A; L: S93A) hIgG1
B9: PR002570 (antibody, human IgG1, kappa, V domains shown)
VH: B1 VH with Q6E, I50V, M51A, D54E, S56V, D57S, K58E, T74N, S75A
VL: B1 VL with S10T, T28S, Q92K
notes: PR001356 variant: VH D54E; hIgG1; also called anti-ROR1 1015M2-E6(H: D54E) hIgG1
B10: PR002571 (antibody, human IgG1, kappa, V domains shown)
VH: B1 VH with Q6E, I50V, M51A, G55A, S56V, D57S, K58E, T74N, S75A
VL: B1 VL with S10T, T28S, Q92K
notes: PR001356 variant: VH G55A; hIgG1; also called anti-ROR1 1015M2-E6(H: G55A) hIgG1
B11: PR002572 (antibody, human IgG1, kappa, V domains shown)
VH: B1 VH with Q1E, V5L, Q6E, Y32F, I50V, M51I
VL: B1 VL with S10T
notes: PR001364 variant: VL N92Q; hIgG1; also called anti-ROR1 1015M3-D8(L: N92Q) hIgG1
B12: PR002573 (antibody, human IgG1, kappa, V domains shown)
VH: B1 VH with Q1E, V5L, Q6E, Y32F, I50V, M51I
VL: B1 VL with S10T, Q92N, S93A
notes: PR001364 variant: VL S93A; hIgG1; also called anti-ROR1 1015M3-D8(L: S93A) hIgG1
B13: PR002574 (antibody, human IgG1, kappa, V domains shown)
VH: B1 VH with Q1E, V5L, Q6E, Y32F, I50V, M51I, D54E
VL: B1 VL with S10T, Q92N
notes: PR001364 variant: VH D54E; hIgG1; also called anti-ROR1 1015M3-D8(H: D54E) hIgG1
B14: PR002575 (antibody, human IgG1, kappa, V domains shown)
VH: B1 VH with Q1E, V5L, Q6E, Y32F, I50V, M51I, D54E
VL: B1 VL with S10T
notes: PR001364 variant: VH D54E, VL N92Q; hIgG1; also called anti-ROR1 1015M3-D8(H: D54E; L: N92Q) hIgG1
B15: PR002576 (antibody, human IgG1, kappa, V domains shown)
VH: B1 VH with Q1E, V5L, Q6E, Y32F, I50V, M51I, D54E
VL: B1 VL with S10T, Q92N, S93A
notes: PR001364 variant: VH D54E, VL S93A; hIgG1; also called anti-ROR1 1015M3-D8(H: D54E; L: S93A) hIgG1
B16: PR002577 (antibody, human IgG1, kappa, V domains shown)
VH: B1 VH with Q1E, V5L, Q6E, Y32F, I50V, M51I, G55A
VL: B1 VL with S10T, Q92N
notes: PR001364 variant: VH G55A; hIgG1; also called anti-ROR1 1015M3-D8(H: G55A) hIgG1
B17: PR002578 (antibody, human IgG1, kappa, V domains shown)
VH: B1 VH with Q1E, V5L, Q6E, Y32F, I50V, M51I, G55A
VL: B1 VL with S10T
notes: PR001364 variant: VH G55A, VL N92Q; hIgG1; also called anti-ROR1 1015M3-D8(H: G55A; L: N92Q) hIgG1
B18: PR002579 (antibody, human IgG1, kappa, V domains shown)
VH: B1 VH with Q1E, V5L, Q6E, Y32F, I50V, M51I, G55A
VL: B1 VL with S10T, Q92N, S93A
notes: PR001364 variant: VH G55A, VL S93A; hIgG1; also called anti-ROR1 1015M3-D8(H: G55A; L: S93A) hIgG1
B19: PR002580 (antibody, human IgG1, kappa, V domains shown)
VH: B1 VH with Q6E, S31N, M34I, D57N, K58T, Y80F
VL: B1 VL with S10T
notes: PR001369 variant: VL N92Q; hIgG1; also called anti-ROR1 1015M3-H10(L: N92Q) hIgG1
B20: PR002581 (antibody, human IgG1, kappa, V domains shown)
VH: B1 VH with Q6E, S31N, M34I, D57N, K58T, Y80F
VL: B1 VL with S10T, Q92N, S93A
notes: PR001369 variant: VL S93A; hIgG1; also called anti-ROR1 1015M3-H10(L: S93A) hIgG1
B21: PR002582 (antibody, human IgG1, kappa, V domains shown)
VH: B1 VH with Q6E, S31N, M34I, D54E, D57N, K58T, Y80F
VL: B1 VL with S10T, Q92N
notes: PR001369 variant: VH D54E; hIgG1; also called anti-ROR1 1015M3-H10(H: D54E) hIgG1
B22: PR002583 (antibody, human IgG1, kappa, V domains shown)
VH: B1 VH with Q6E, S31N, M34I, D54E, D57N, K58T, Y80F
VL: B1 VL with S10T
notes: PR001369 variant: VH D54E, VL N92Q; hIgG1; also called anti-ROR1 1015M3-H10(H: D54E; L: N92Q) hIgG1
B23: PR002584 (antibody, human IgG1, kappa, V domains shown)
VH: B1 VH with Q6E, S31N, M34I, D54E, D57N, K58T, Y80F
VL: B1 VL with S10T, Q92N, S93A
notes: PR001369 variant: VH D54E, VL S93A; hIgG1; also called anti-ROR1 1015M3-H10(H: D54E; L: S93A) hIgG1
B24: PR002585 (antibody, human IgG1, kappa, V domains shown)
VH: B1 VH with Q6E, S31N, M34I, G55A, D57N, K58T, Y80F
VL: B1 VL with S10T, Q92N
notes: PR001369 variant: VH G55A; hIgG1; also called anti-ROR1 1015M3-H10(H: G55A) hIgG1
B25: PR002586 (antibody, human IgG1, kappa, V domains shown)
VH: B1 VH with Q6E, S31N, M34I, G55A, D57N, K58T, Y80F
VL: B1 VL with S10T
notes: PR001369 variant: VH G55A, VL N92Q; hIgG1; also called anti-ROR1 1015M3-H10(H: G55A; L: N92Q) hIgG1
B26: PR002587 (antibody, human IgG1, kappa, V domains shown)
VH: B1 VH with Q6E, S31N, M34I, G55A, D57N, K58T, Y80F
VL: B1 VL with S10T, Q92N, S93A
notes: PR001369 variant: VH G55A, VL S93A; hIgG1; also called anti-ROR1 1015M3-H10(H: G55A; L: S93A) hIgG1

target: T1, human ROR1 (hROR1) on cells (human, UniProt Q01973 30-937); experiment: FACS, Panc-1 cells; further: test concentration or dose not given here
T1 construct: whole, on cells; the cell line is named under assay; also called HEK293T-hROR1; 293T-hROR1
T1 sequence (Q01973 30-937): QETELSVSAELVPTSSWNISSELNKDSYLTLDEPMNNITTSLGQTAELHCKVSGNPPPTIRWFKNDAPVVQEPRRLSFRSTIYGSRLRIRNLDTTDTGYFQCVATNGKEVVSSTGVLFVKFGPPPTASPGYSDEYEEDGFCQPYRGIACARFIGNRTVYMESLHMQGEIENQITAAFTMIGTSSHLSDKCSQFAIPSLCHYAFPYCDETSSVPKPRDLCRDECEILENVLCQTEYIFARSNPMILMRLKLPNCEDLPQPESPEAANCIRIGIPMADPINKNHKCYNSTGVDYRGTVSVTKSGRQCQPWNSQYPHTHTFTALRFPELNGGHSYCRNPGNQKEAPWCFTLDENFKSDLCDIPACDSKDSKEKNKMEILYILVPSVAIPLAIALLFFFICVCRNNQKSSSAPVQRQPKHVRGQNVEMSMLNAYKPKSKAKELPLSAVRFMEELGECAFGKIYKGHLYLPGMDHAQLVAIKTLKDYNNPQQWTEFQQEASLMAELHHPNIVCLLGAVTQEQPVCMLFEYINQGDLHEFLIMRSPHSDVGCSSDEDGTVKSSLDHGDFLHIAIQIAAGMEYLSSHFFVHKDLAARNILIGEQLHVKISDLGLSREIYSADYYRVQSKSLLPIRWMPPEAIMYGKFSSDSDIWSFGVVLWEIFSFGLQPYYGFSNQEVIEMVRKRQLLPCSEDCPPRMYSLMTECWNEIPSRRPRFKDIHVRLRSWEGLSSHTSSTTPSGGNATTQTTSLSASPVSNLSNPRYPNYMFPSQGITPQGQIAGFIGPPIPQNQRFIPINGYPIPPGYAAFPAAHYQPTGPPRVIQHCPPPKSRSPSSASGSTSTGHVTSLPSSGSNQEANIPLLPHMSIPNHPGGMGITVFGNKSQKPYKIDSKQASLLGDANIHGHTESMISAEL

Binder | MFI [MFI]
B1 | 5600
B2 | 5020
B3 | 6590
B4 | 6820
B5 | 4630
B6 | 7030
B7 | 3620
B8 | 3760
B9 | 3660
B10 | 4560
B11 | 3930
B12 | 3710
B13 | 5870
B14 | 3250
B15 | 2470
B16 | 6490
B17 | 6700
B18 | 7050
B19 | 3720
B20 | 3180
B21 | 1990
B22 | 3950
B23 | 3180
B24 | 2610
B25 | 5490
B26 | 2950

target: ROR1 (antigen of the KD determination and of the Octet dissociation measurement) (UniProt Q01973 30-403, limits assumed); experiment: Octet, antigen form not stated
Sequence (Q01973 30-403 limits assumed): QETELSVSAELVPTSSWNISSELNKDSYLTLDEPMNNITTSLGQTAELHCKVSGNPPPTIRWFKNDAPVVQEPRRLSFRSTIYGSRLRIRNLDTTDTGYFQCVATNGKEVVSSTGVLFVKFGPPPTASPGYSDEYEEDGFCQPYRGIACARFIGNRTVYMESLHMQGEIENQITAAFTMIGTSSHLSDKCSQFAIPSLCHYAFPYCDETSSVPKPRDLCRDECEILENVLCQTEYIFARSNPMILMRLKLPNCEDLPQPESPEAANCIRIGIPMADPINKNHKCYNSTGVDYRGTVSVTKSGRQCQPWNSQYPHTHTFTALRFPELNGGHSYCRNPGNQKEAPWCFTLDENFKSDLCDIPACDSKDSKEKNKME

Binder | Response | koff [s⁻¹]
B1 | 0.629 | 0.000162
B2 | 0.757 | 0.000122
B3 | 0.748 | 0.000108
B4 | 0.595 | 0.000106
B5 | 0.663 | 0.000135
B6 | 0.707 | 0.000215
B7 | 0.702 | 0.00014
B8 | 0.614 | 0.000207
B9 | 0.472 | 0.00108
B10 | 0.638 | 0.000113
B11 | 0.606 | 0.000104
B12 | 0.723 | 8.84e-05
B13 | 0.485 | 0.000172
B14 | 0.828 | 0.000112
B15 | 0.866 | 9.83e-05
B16 | 0.244 | 0.000601
B17 | 0.414 | 0.000322
B18 | 0.783 | 0.000199
B19 | 0.985 | 4.75e-05
B20 | 0.974 | 6.73e-05
B21 | 0.798 | 0.000193
B22 | 0.672 | 0.000223
B23 | 0.69 | 0.000301
B24 | 0.771 | 0.000389
B25 | 0.754 | 0.000266
B26 | 0.756 | 0.000394

target: T1, human ROR1 (hROR1) on cells; experiment: FACS, HEK293T-hROR1 cells; further: test concentration or dose not given here

Binder | MFI [MFI]
B1 | 43900
B2 | 43800
B3 | 43200
B4 | 46900
B5 | 43300
B6 | 41900
B7 | 46300
B8 | 34500
B9 | 43100
B10 | 49600
B11 | 43000
B12 | 37200
B13 | 45300
B14 | 33800
B15 | 40200
B16 | 44200
B17 | 45100
B18 | 43100
B19 | 42500
B20 | 42300
B21 | 32300
B22 | 25300
B23 | 36600
B24 | 32700
B25 | 41900
B26 | 41500
